Among the data in paper PMC5749889 are stoichiometry N values, retold here.

The target of the test is light-harvesting complexes of G. phototrophica (light-harvesting antenna subunits, B868 inner ring and B816 outer ring) (G. phototrophica (endogenous in strain AP64)). Briefly: negative-stain TEM with single particle analysis; freshly purified complexes on carbon-coated copper grids, 1.5% uranyl acetate, 200 kV, 2D class averages in RELION.

With “light-harvesting complexes of G. phototrophica (light-harvesting antenna subunits, B868 inner ring and B816 outer ring)”, the stoichiometry N (as a rule, a count of units in the complex or per binding partner) amounted to 15.
